Patent publication US20080176285

Experiments:
[1] = biological target: RNAse B (UniProt P61823)
[2] = system: cathepsin D
[3] = biological target: porcine uteroferrin (UniProt P09889)
UniProt P09889, sequence (P09889 22-340): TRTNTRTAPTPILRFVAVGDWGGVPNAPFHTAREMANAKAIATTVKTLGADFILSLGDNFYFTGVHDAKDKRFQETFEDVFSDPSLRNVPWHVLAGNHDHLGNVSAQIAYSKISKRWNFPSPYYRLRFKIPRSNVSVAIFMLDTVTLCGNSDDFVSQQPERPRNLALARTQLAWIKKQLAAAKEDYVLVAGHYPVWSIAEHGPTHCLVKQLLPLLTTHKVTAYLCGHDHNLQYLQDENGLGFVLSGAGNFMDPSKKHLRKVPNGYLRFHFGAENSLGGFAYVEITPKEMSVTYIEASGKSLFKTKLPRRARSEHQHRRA

UniProt P61823, sequence (P61823 27-150): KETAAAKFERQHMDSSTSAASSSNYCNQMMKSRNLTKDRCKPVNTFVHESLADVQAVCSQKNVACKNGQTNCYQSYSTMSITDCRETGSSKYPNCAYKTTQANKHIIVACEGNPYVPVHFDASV

## bovine GlcNAc-phosphotransferase (UDP-N-acetylglucosamine: lysosomal enzyme N-acetylglucosamine-1-phosphotransferase)
[1]
  Km as acceptor for the transfer of GlcNAc-1-P: the Km was not reached at the solubility limit of the protein (at 600 µM)
[2]
  Km as acceptor for the transfer of GlcNAc-1-P: Kms below 20 µM
[3]
  Km as acceptor for the transfer of GlcNAc-1-P: Kms below 20 µM
